The source of these data is paper PMC2801267.

One data set concerns the target Ku70/80 heterodimer (Ku) (human? (HeLa cells), UniProt P12956;P13010 1-609;1-732). Nature of the data set: biotin pull-down.
The target of data set [1] is Ku70/80 heterodimer (Ku);DNA-PKcs (human? (HeLa cells);human? (HeLa cells), UniProt P12956;P13010;P78527 1-609;1-732;1-4128, |). The data set can be described thus: biotin pull-down.

Sequence of Ku70/80 heterodimer (Ku) (P12956 whole entry, chain 1 of 2): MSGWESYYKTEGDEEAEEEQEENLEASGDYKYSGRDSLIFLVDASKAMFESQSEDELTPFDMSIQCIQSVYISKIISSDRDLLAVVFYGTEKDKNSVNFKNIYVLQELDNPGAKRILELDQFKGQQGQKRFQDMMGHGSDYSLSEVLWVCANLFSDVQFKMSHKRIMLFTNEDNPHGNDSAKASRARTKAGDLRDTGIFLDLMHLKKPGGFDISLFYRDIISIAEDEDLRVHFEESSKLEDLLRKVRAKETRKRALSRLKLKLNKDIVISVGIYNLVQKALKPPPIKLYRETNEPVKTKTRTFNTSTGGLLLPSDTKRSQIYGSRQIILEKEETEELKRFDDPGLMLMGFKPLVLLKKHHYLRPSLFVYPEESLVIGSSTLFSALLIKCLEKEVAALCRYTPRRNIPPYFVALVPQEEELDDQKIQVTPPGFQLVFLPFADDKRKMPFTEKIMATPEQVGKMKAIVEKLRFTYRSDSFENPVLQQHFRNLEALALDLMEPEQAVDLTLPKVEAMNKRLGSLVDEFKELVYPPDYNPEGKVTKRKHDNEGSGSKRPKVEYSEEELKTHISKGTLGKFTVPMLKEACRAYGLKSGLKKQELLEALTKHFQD
Sequence of Ku70/80 heterodimer (Ku) (P13010 whole entry, chain 2 of 2): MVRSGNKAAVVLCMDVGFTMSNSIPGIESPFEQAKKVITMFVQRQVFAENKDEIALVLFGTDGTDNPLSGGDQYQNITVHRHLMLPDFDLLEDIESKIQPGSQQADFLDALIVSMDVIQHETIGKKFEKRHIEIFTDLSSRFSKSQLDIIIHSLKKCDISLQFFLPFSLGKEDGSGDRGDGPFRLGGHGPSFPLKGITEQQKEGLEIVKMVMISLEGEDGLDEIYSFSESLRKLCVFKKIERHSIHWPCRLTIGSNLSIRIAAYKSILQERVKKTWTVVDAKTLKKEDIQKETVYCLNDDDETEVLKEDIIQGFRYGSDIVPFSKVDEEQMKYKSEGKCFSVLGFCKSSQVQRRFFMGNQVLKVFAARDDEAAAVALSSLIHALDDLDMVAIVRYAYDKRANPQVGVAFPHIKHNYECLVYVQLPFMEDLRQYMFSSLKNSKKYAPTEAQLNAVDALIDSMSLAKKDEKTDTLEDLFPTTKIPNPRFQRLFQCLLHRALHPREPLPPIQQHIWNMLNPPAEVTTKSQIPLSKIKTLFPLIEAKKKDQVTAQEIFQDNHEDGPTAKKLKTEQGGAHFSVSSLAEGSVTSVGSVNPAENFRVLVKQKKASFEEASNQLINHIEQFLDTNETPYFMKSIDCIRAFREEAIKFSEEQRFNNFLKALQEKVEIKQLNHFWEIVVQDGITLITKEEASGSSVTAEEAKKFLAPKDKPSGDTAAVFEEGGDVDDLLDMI

B1: 1 x biotin 40-bp dsDNA (dsDNA)
DNA 1: GGATACACAACAGACCGCAACACTCAGATTACTTTTCGCC
DNA 2: GGCGAAAAGTAATCTGAGTGTTGCGGTCTGTTGTGTATCC
modifications: 5'-biotin on oligo 1
For the molecule B1, the binding result (with Ku70/80 heterodimer (Ku); in data set [1]) was “binds” each time.
